This is an account of results in publication PMC2964165 (The EMBO Journal, 2010).

For this assay, the target named is recombinant Impβ (human, UniProt Q14974 1-876). The assay is described as follows: pull-down.
Chain of recombinant Impβ (Q14974 whole entry): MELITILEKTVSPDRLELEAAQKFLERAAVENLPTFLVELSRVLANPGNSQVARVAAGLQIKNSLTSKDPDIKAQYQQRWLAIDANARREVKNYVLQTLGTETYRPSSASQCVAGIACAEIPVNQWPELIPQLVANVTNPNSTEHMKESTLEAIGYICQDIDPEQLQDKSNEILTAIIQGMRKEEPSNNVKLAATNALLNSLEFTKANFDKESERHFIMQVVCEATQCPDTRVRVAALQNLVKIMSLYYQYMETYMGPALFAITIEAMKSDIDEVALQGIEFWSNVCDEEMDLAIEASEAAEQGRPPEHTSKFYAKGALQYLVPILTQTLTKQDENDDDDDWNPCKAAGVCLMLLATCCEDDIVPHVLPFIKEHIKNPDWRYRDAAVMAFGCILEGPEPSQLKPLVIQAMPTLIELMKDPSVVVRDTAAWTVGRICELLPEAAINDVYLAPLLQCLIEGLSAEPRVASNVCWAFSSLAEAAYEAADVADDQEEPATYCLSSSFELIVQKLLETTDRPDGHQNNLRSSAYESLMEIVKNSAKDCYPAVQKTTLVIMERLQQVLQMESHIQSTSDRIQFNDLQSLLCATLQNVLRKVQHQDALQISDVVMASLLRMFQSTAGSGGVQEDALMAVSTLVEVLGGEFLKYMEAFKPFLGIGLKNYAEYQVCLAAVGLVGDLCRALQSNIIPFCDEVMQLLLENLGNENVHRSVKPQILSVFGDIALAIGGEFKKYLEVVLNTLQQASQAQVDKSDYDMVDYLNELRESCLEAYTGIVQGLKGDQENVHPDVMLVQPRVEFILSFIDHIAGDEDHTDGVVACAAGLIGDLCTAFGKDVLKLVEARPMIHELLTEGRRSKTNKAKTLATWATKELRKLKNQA

B1: IBB peptide (peptide)
peptide: not shown
For B1, the binding result is reported as “binds”.
